Data from paper PMC2765987 (2009).

B1: FLAG-tagged PP6R3 (full-length, residues 1-873) [human] / PP6 catalytic subunit, endogenous [human (endogenous in HEK293, HeLa, HepG2, Jurkat)] (parent complex)
chain 1: MFWKFDLHSSSHIDTLLEREDVTLKELMDEEDVLQECKAQNRKLIEFLLKAECLEDLVSFIIEEPPQDMDEKIRYKYPNISCELLTSDVSQMNDRLGEDESLLMKLYSFLLNDSPLNPLLASFFSKVLSILISRKPEQIVDFLKKKHDFVDLIIKHIGTSAIMDLLLRLLTCIEPPQPRQDVLNWLNEEKIIQRLVEIVHPSQEEDRHSNASQSLCEIVRLSRDQMLQIQNSTEPDPLLATLEKQEIIEQLLSNIFHKEKNESAIVSAIQILLTLLETRRPTFEGHIEICPPGMSHSACSVNKSVLEAIRGRLGSFHELLLEPPKKSVMKTTWGVLDPPVGNTRLNVIRLISSLLQTNTSSINGDLMELNSIGVILNMFFKYTWNNFLHTQVEICIALILASPFENTENATITDQDSTGDNLLLKHLFQKCQLIERILEAWEMNEKKQAEGGRRHGYMGHLTRIANCIVHSTDKGPNSALVQQLIKDLPDEVRERWETFCTSSLGETNKRNTVDLVTTCHIHSSSDDEIDFKETGFSQDSSLQQAFSDYQMQQMTSNFIDQFGFNDEKFADQDDIGNVSFDRVSDINFTLNTNESGNIALFEACCKERIQQFDDGGSDEEDIWEEKHIAFTPESQRRSSSGSTDSEESTDSEEEDGAKQDLFEPSSANTEDKMEVDLSEPPNWSANFDVPMETTHGAPLDSVGSDVWSTEEPMPTKETGWASFSEFTSSLSTKDSLRSNSPVEMETSTEPMDPLTPSAAALAVQPEAAGSVAMEASSDGEEDAESTDKVTETVMNGGMKETLSLTVDAKTETAVFKSEEGKLSTSQDAACKDAEECPETAEAKCAAPRPPSSSPEQRTGQPSAPGDTSVNGPV
chain 2: MAPLDLDKYVEIARLCKYLPENDLKRLCDYVCDLLLEESNVQPVSTPVTVCGDIHGQFYDLCELFRTGGQVPDTNYIFMGDFVDRGYYSLETFTYLLALKAKWPDRITLLRGNHESRQITQVYGFYDECQTKYGNANAWRYCTKVFDMLTVAALIDEQILCVHGGLSPDIKTLDQIRTIERNQEIPHKGAFCDLVWSDPEDVDTWAISPRGAGWLFGAKVTNEFVHINNLKLICRAHQLVHEGYKFMFDEKLVTVWSAPNYCYRCGNIASIMVFKDVNTREPKLFRAVPDSERVIPPRTTTPYFL

Variants of: B1
Assay: co-immunoprecipitation (anti-FLAG) with quantitative fluorescent immunoblotting; expressed in HEK293 cells; endogenous PP6c; 3 independent experiments; parent: 100; read off a plot

| Variant | percent of parent |
| --- | --- |
| chain 1 E259K, chain 1 E262K | ~64 PP6c / FLAG (wild type = 100) |
| chain 1 E204K, chain 1 E205K | ~75 PP6c / FLAG (wild type = 100) |
| chain 1 D113R | ~91 PP6c / FLAG (wild type = 100) |
